From publication PMC4167179 (Results in Pharma Sciences, 2012)
No end group written: not given here. mPEG 20 kDa = linear 20 kDa mPEG attached to the Gln side chain; mPEG 5 kDa = linear 5 kDa mPEG attached to the Gln side chain

Assays:
[1] = test system: rat β-cell line RIN-m5F; experiment: In vitro insulin secretion, static incubation of RIN-m5F cells; assay type: cell-based; conditions: for EC50: read-out: In vitro insulin secretion in rat β-cell line RIN-m5F, EC50, 2 mM glucose, 30 min incubation, rat insulin ELISA, mean ± SEM of three experiments
[2] = Pharmacokinetics after subcutaneous injection in rats; assay type: in vivo, Sprague-Dawley rats; conditions: 1 mg/kg s.c.; for Cmax / tmax: plasma ELISA; for tmax: non-compartmental

Substance	EC50 [1] [nM]	tmax ([2]; four animals) [h]	also measured
GLP-1-(7-36)-(T11Q–Q23N)-amide-Q^11-PEG 5 kDa (HAEGQ(mPEG 5 kDa)FTSDVSSYLEGNAAKEFIAWLVKGR-NH2; UniProt P01275 98-127, looked up, variant T11Q Q23N)	106.3 ± 0.5	–	–
GLP-1-(7-36)-amide-Q^23-PEG 5 kDa: GLP-1(7-36)-amide monopegylated at glutamine 23 with linear 5 kDa mPEG-NH2	–	3	t1/2 ([2]; elimination phase of log transformed curve, four animals): 1.7 h; Cmax ([2]; four animals): 160.4 ng/mL
GLP-1-(7-36)-amide-Q^23-PEG 50 kDa: GLP-1(7-36)-amide monopegylated at glutamine 23 with branched 50 kDa mPEG-NH2	1870 ± 1	–	–

Further lines, with some results ahead:

EC50 [1] [nM]	Substance	tmax ([2]; four animals) [h]	also measured
35 ± 3	GLP-1-(7-36)-(Q23N–A30Q)-amide-Q^30-PEG 20 kDa (HAEGTFTSDVSSYLEGNAAKEFIQ(mPEG 20 kDa)WLVKGR-NH2; UniProt P01275 98-127, looked up, variant Q23N A30Q)	–	In vitro insulin secretion, Relative potency ([1]; 1/(EC50 analog/EC50 GLP-1(7-36)-amide)): 0.017
34.4 ± 0.8	GLP-1-(7-36)-amide-Q^23-PEG 20 kDa: GLP-1(7-36)-amide monopegylated at glutamine 23 with linear 20 kDa mPEG-NH2	9	AUC (AUC96 h) ([2]; 0→96 h, linear trapezoidal rule, four animals): 16,799.8 ng/ml×h; plasma concentration after 96 h ([2]; 96 h): around 5 ng/ml; Cmax ([2]; four animals, 1 mg/kg): 640 ng/mL
